This note sets out measurements from patent publication US8404644B2, “Agents with angiogenic and wound healing activity” (Meat & Livestock Australia Limited, priority 2007, dated 2013).

One series deals with rat aortic ring. Briefly: Rat aortic ring angiogenesis assay (Example 4.3). Conditions: for % of Control: microvessel growth. It counts as cell-based, Lewis rat. How it is done:
Four separate studies were carried out to determine the angiogenic effect of crystallin preparations. Each sample was assayed in triplicate. A positive control (VEGF) and a vehicle control containing PBS was also run in triplicate. […] Preliminary statistical significance was assessed with an independent Student t-test at α<0.05. Graphical representation of averages +/− standard errors were determined.
The first study investigated the angiogenic potential of bovine fractions prepared by gel filtration analysis as described in Example 3.2. As described in that Example, the alpha fraction contained αA and αB crystallin, the β H fraction contained all β crystallins, the β L1 fractions contained a sub-fraction of beta crystallins and a high content of βB2 crystallin and beta B3 crystallin and the beta L2 fraction contained only βB2 crystallin and βA3 crystallin.
The second study investigated the angiogenic potential of purified crystallin proteins. Briefly, βB3 crystallin was prepared by heating (97-99° C. for 3 minutes, supernatant collected by centrifugation) and was essentially homogenous. Alpha A crystallin and αB crystallin samples were prepared by ion exchange chromatography as described above and were also essentially homogenous. The Wound Heal 1-3 preparations were also tested in this study.
The third study investigated the angiogenic potential of ovine crystallin proteins compared to their bovine equivalents. Both bovine and ovine crystallin proteins were purified essentially to homogeneity by RP. HPLC using a C4 column, as described below in Example 5. Homogeneity was confirmed by SDS-PAGE. The effect of elastase I treatment of βB2 crystallin was also investigated by comparing the angiogenic potential of intact βB2 crystallin (i.e. undigested) with elastase I digested βB2 crystallin. Elastase I treatment releases the N-terminal and C-terminal extensions of the crystallin protein leaving a globular protein that is monomeric.
In the final study, ovine βB2 crystallin was tested alone or in combination with indoleamine 2,3-dioxygenase (IDO) and ovine alpha B crystallin was tested alone or in combination with tryptophan dioxygenase (TDO)
Briefly, in each study, a single Lewis rat was euthanised and its aorta transferred to a 15 mL Falcon tube containing 10 mL of MCBD-131 medium and stored on ice. After transferring the aorta to a 92×17 mm petri dish containing 10 mL of ice cold MCDB-131, the outer fatty tissue was removed under an Olympus SZ-60 Dissecting microscope. This was undertaken with fibre optic lamp illumination. The aorta was then cut into sequential rings approximately 2 mm in size. Connective tissue was removed with micro scissors and forceps from the outside of the individual rings. Clean rings were stored in a separate petri dish in sterile MCDB-131 medium. Rings were pre-incubated overnight at 37° C. in an atmosphere of 97% air/3% CO2.
To prepare gel sandwiches, 75 mg of fibrinogen was added to 25 mL MCDB-131 medium and shaken gently on a rocker roller for 5 minutes. 3 ml of MCDB-131/fibrinogen solution was added to a 15 mL Falcon tube, followed by 10 μL of thrombin and quickly mixed. A 0.4 mL volume of this fibrinogen-thrombin solution was added to each well on a 24 well plate, 6 wells at a time. Aortic rings were then placed on the setting gel, pushed gently into the gel and left for 45 minutes. These steps were then repeated so each ring was covered with 0.4 mL of gel. Gels were left to set at room temperature. […] The plate was then placed in incubator (37° C., 97% air/3% CO2).
Culture plate were examined daily for signs of infection (fungal growth or yellowing of media) in the wells using an inverted microscope. The growth of microvessels from their perimeters was also observed. Digital photographs of each well were taken seven days after plating using a Pixera PVC-100C digital camera mounted on an OLYMPUS CK-12 microscope and stored on a Macintosh Computer. […]

In series [1] the test system is full thickness 12 mm wound. Briefly: Wound healing assay (Example 3.6). It counts as in vivo, male Lewis rats. As to conditions: for Wound areas: mg/wound: Wound heal 1 0.01, Wound heal 2 0.1, Wound heal 3 1.0, Aloe vera 20. How it is done:
Thirty male Lewis rats were divided into 5 groups of 6 rats as outlined below in Table 7. Rats were age and weight matched. Rats were permitted rodent diet and water ad libitum throughout the study.
The animals were weighed two days before the start of the trial and weights grouped from lightest to heaviest. Animals were then randomly assigned to groups based on body weights, using 5×5 Latin squares so that group means were as similar as possible.
Approximately 30 minutes before wounding, each animal was given a subcutaneous injection of Temgesic at the base of the neck (0.075 mg/kg body weight). Each animal was anaesthetised using 3% halothane in oxygen. Once the pedal reflexes had been abolished, the animals were shaved from the base of the skull to the hind limb area using electric clippers. The skin on each rat was disinfected using 0.5% chlorhexidine in 70% ethanol. For each animal, the distance from the base of the skull to the top of the hip joint was measured and the wound position marked with a black felt tip pen, 6 cm below the base of the skull along the spinal axis.
Using asceptic techniques a full thickness incision was made at this position using a sterile 12 mm biopsy punch. Any bleeding was removed using cotton swabs. Care was taken that the punch was dry and that no debris (eg., skin, hair) entered the wounds. […] After photography of each wound using a Canon Digital EOS 20D camera with a F2.8 Macro lens, an aliquot of the sample was applied to the wounds on the rats in Groups A, B, D and E using a Gilson Microman CP 100 positive displacement pipette. The biopsy punch was wiped inside with a swab soaked in sterile saline to remove any tissue fluids and/or debris. The punch was then immersed in 70% ethanol before use on the next animal.
For applications and photographs after day 1 the animals were restrained without being anaesthetised.
(§1) Body weights were measured on days 1, 3, 5, 7, 9, 11, 13, 15, 17, 19, 21 and 23 and deviations from original body weights (on day 1) calculated for each animal. On the same days, photographs were taken using a Canon Digital Eos 20D with a F2.8 Macro lens. Photographs were downloaded and wound areas measured using NIH Image J 1.633u software (National Institutes of Health (NIH), Rockville Pike, Bethesda, Md., United States). A laser speckle image was also taken at the same time as each space photograph was taken. Animals were weighed every second day when the photographic record of wound closure rate was also made.
The redness and swelling of each wound were individually scored from visual observation. These were scored on a scale of 0-3 as follows:
Descriptive statistics were evaluated. […] Major analyses were performed on all data points collected. Preliminary analyses were undertaken on control wounds only using t-tests. Univariate ANOVAs were used to assess differences between treatment and controls and samples nested within treatments. A separate ANOVA assessed whether there was a dose response using the treatment samples only. Assumptions for normality were tested using q-q plots on studentized residuals and heterogeneity of variances were tested using Levene's tests. SPSS 11 for Mac OSX was used for assumption testing and statistical analysis.

A further series concerns the target T1, elastase I (Sus scrofa, UniProt P00772).
T1 construct: purchased Worthington Biochemical Corporation 2280
As to the kind of experiment: Chaperone activity: protection of elastase I from heat denaturation. It counts as biochemical. As to conditions: boiling water bath for 30 seconds. The protocol: Bovine crystallin fractions were tested for ability to protect the proteases elastase I, trypsin and chymotrypsin from heat denaturation. Briefly, the proteases were heated in a boiling water bath for 30 seconds in the presence or absence of the crystallin fractions.

A short description of series [2]: Body weight during wound healing assay (Example 3.6). It counts as in vivo, male Lewis rats. Conditions: PBS control returned by day 11. How it is done:
as §1

Where [3] appears, read: summary of second and third study.

T1 sequence (P00772 27-266): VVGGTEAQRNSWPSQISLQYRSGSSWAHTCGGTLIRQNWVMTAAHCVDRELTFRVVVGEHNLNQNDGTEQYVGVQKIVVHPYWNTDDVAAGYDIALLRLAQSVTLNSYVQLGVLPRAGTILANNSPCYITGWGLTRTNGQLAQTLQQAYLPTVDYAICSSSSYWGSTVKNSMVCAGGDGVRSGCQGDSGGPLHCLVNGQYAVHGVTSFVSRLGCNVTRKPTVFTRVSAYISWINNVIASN

B1: Wound Heal 1: bovine βB2 crystallin, fractionated at pH 5.3 on Sephacryl 300 HR; Group B of Example 3, 0.01 mg/wound (protein)
chain: ASDHQTQAGKPQPLNPKIIIFEQENFQGHSHELNGPCPNLKETGVEKAGSVLVQAGPWVGYEQANCKGEQFVFEKGEYPRWDSWTSSRRTDSLSSLRPIKVDSQEHKITLYENPNFTGKKMEVIDDDVPSFHAHGYQEKVSSVRVQSGTWVGYQYPGYRGLQYLLEKGDYKDSGDFGAPQPQVQSVRRIRDMQWHQRGAFHPSS
On to B1, for which the “% of Control” value with rat aortic ring (second study, 200 μg/mL) was determined as 94.52%. Besides, the Wound areas in series [1] (Day 1 (=100)) stood at 100; in series [1] (Day 3), 86; in series [1] (Day 5), 75; in series [1] (Day 7), 69; in series [1] (Day 9), 54; in series [1] (Day 11), 32. The Wound areas in series [1] (Day 13) is 18; in series [1] (Day 15), 13; in series [1] (Day 17), 8; in series [1] (Day 19), 4; in series [1] (Day 21), 1.7; in series [1] (Day 23) it was 1.4. The mean wound area in series [1] (day 5) is 123 ± 14.7 mm². The “wound area at day 5, statistical significance” value in series [1] (day 5, p=0.045 (Wound Heal 1), p=0.008 (Wound Heal 2)) was “significantly smaller”. For the same molecule, in series [1] (rat, in vivo), the “healing rate compared to Control group (PBS), in words” value was “slightly faster healing rate than the reference group over the first 7 days”. Also, in the series with elastase I, the “chaperone activity: protection of elastase I from heat denaturation (in words)” value is listed as “not”. The “day by which mean body weight had returned to the starting (pre-wounding) weight” value in series [2] was not above 14 days.

B2: Bovine βB2 crystallin (non-elastase treated): intact bovine βB2 crystallin prepared by RP HPLC on C4 column (protein, UniProt P02522 2-205, looked up)
Beta-crystallin B2: B1 chain
B2: the “angiogenic activity (in words)” value with rat aortic ring (setting [3]) is listed as “not angiogenic”. In the series on rat aortic ring (third study, 100 μg/mL), the “% of Control” value turned out to be 93.4%.

B3: Ovine βB2 crystallin: intact ovine βB2 crystallin prepared by RP HPLC on C4 column (protein)
chain: ASDHQTQAGKPQPLNPKIIIFEQENFQGHSHELNGPCPNLKETGVEKAGSVLVQAGPWVGYEQANCKGEQFVFEKGEYPRWDSWTSSRRTDSLSSLRPIKVDSQEHKITLYENPNFTGKKMEVIDDDVPSFHAHGYQEKVSSVRVQSGTWVGYQYPGYRGLQYLLEKGDYKDSGDFGAPQPQVQSVRRIRDMQWHQRGAFHPS
On to B3, for which the “angiogenic activity (in words)” value with rat aortic ring (setting [3]) was “not angiogenic”. The “% of Control” value in the series on rat aortic ring (third study, 100 μg/mL) is on record as 103.5%.

B4: Tryptophan dioxygenase TDO: tryptophan hydrolyzing enzyme (protein, UniProt P48775 1-406, looked up)
Tryptophan 2,3-dioxygenase: MSGCPFLGNNFGYTFKKLPVEGSEEDKSQTGVNRASKGGLIYGNYLHLEKVLNAQELQSETKGNKIHDEHLFIITHQAYELWFKQILWELDSVREIFQNGHVRDERNMLKVVSRMHRVSVILKLLVQQFSILETMTALDFNDFREYLSPASGFQSLQFRLLENKIGVLQNMRVPYNRRHYRDNFKGEENELLLKSEQEKTLLELVEAWLERTPGLEPHGFNFWGKLEKNITRGLEEEFIRIQAKEESEEKEEQVAEFQKQKEVLLSLFDEKRHEHLLSKGERRLSYRALQGALMIYFYREEPRFQVPFQLLTSLMDIDSLMTKWRYNHVCMVHRMLGSKAGTGGSSGYHYLRSTVSDRYKVFVDLFNLSTYLIPRHWIPKMNPTIHKFLYTAEYCDSSYFSSDESD
Consider B4, for which, in the series with rat aortic ring (forth study, 100 μg/mL), the “angiogenic activity (in words)” value is given as “stimulatory” and the “% of Control” value came out at 106.2%.

B5: Bovine αB crystallin: bovine αB crystallin prepared by ion exchange chromatography, essentially homogenous (protein)
chain: MDIAIHHPWIRRPFFPFHSPSRLFDQFFGEHLLESDLFPASTSLSPFYLRPPSFLRAPSWIDTGLSEMRLEKDRFSVNLDVKHFSPEELKVKVLGDVIEVHGKHEERQDEHGFISREFHRKYRIPADVDPLAITSSLSSDGVLTVNGPRKQASGPERTIPITREEKPAVTAAPKK
As to B5, the “% of Control” value in the series with rat aortic ring (second study, 200 μg/mL) was 85.21%. Also, the “chaperone activity: protection of elastase I from heat denaturation (in words)” value in the series with elastase I was “able to protect elastase I from heat inactivation”.
